{"source": "patent US20180086825A1", "about": "(published 2018)", "binders": {"B1": {"name": "SAIT-ANG2-AB-m10D6 (antibody, V domains shown)", "VH": "DVQLQESGPGLVKPSQSLSLTCTVTGYSITSDYAWNWIRQFPGNKLEWMGYINYSGNTDYNPSLKSRSSITRDTSKNQFFLQLNSVTTGDTATYYCARGNFEGAMDYWGQGTSVTVSS", "VL": "SIVMTQTPKFLLVSAGDRVTITCKASQSVSNDVAWYQQKPGQSPKLLIYYASNRYPGVPDRFTGSGYGTDFTFTISTVQAEDLAVYFCQQDYSSPWTFGGGTKLEIK"}}, "biological_target": "T1, Ang2 protein (R&D systems) (human, UniProt O15123 19-496, limits assumed)", "T1 sequence": "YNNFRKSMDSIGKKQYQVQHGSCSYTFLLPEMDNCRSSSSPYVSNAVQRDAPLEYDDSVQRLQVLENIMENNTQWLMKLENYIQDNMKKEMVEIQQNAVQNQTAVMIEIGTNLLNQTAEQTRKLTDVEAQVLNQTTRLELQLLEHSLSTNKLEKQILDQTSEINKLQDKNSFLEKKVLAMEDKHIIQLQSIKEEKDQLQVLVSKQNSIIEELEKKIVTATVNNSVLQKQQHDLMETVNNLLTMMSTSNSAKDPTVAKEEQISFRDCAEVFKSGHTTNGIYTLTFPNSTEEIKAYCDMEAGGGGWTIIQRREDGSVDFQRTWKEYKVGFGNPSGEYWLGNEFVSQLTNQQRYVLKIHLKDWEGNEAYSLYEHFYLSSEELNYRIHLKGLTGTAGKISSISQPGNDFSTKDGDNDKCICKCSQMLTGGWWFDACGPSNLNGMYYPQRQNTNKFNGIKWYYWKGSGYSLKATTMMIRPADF", "test": "cell-based or functional assay"}
{"binder": "B1", "values": [{"measurement": "Tie2 phosphorylation level (pTyr/Tie2 ratio, HUVEC, 60 nM antibody with Ang2)", "result": 180, "unit": "%"}]}
